Test results from patent US20200062856A1 (XDCEXPLORER SHANGHAI, published 2020).
Residue numbers refer to the chain shown, from its start.

T1: human TPBG protein, full-length, on the cell surface (human, UniProt Q13641 32-420)
T1 sequence (looked up): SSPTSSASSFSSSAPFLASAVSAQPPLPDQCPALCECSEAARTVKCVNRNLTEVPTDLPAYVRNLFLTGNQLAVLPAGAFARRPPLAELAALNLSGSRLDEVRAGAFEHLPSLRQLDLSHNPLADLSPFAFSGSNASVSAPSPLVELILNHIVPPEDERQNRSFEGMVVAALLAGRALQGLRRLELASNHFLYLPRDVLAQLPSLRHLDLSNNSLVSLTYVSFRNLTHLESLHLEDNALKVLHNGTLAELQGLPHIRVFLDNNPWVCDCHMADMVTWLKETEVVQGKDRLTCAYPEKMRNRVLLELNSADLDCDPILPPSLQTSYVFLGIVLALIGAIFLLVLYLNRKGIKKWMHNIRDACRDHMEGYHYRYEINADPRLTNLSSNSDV

T2: cynomolgus TPBG protein, full-length, on the cell surface (cynomolgus, UniProt Q4R8Y9 35-420)
T2 construct: whole, on cells; also called cTPBG; CHOk1-cTPBG
T2 sequence (looked up): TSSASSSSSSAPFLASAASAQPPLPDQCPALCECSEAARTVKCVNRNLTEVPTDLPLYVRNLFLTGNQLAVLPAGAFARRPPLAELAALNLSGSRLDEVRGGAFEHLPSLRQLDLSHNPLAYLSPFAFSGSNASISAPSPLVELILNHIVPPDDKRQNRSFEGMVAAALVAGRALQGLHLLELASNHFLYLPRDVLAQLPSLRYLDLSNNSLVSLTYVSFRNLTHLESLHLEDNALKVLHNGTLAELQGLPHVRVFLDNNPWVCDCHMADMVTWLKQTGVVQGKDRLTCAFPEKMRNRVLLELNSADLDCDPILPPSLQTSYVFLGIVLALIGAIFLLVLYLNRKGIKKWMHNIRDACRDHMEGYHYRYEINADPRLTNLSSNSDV

T3: human TPBG-hFc protein (human, UniProt Q13641 32-355)
T3 construct: range 32-355; Expressed in HEK293 cells, purified on protein A; also called immunogen A; hFc tagged TPBG protein; not shown: human IgG Fc fragment of the pCpC vector
T3 sequence (looked up): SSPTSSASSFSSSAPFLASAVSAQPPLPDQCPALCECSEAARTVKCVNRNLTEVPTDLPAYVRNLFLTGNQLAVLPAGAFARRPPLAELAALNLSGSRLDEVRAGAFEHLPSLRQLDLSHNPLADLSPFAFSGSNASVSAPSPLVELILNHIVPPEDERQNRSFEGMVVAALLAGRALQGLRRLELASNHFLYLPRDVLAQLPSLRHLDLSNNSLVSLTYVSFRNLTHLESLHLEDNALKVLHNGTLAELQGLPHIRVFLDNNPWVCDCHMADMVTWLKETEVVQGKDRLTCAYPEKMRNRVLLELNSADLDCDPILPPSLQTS

T4: human TPBG antigen immobilized on a CM5 chip (human, UniProt Q13641 32-355, limits assumed)
T4 sequence (looked up): T3 sequence (looked up)

T5: mouse TPBG protein, full-length, on the cell surface (mouse, UniProt Q9Z0L0 32-426)
T5 construct: whole, on cells; also called mTPBG; CHOk1-mTPBG
T5 sequence (looked up): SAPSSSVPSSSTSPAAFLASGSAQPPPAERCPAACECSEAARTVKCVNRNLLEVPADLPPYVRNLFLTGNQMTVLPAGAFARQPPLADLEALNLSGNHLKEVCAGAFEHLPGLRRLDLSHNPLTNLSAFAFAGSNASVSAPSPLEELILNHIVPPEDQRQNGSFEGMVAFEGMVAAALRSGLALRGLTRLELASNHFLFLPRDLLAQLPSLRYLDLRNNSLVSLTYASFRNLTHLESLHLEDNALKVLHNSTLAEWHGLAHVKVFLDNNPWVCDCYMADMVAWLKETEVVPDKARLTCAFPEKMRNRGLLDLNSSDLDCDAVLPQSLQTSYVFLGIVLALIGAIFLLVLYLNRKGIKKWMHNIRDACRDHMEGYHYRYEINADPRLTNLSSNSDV

B1: Chimeric Antibody 12B12-MMAF (antibody, V domains shown)
VH: DVQLVESGGGLVQPGGSRKLSCAASGFTFSNFGMHWVRQAPEKGLEWVAYISSGSTSFYYADTVKGRFTISRDNPKNTLFLQMTSLRSEDTAMYYCSRTNSLLRGFFDAWGAGTTVTVSS
VL: DIVLTQSPASLAVSLGQRATISCRASQSVSSSSYTYLHWYQQKPGQPPKLLIKSASNLESGVPARFSGTGSGTDFTLNIHPVEEEDTATYYCQHSWEIPLTFGAGTKLELK
modifications: MC-MMAF on cysteines reduced with TCEP (sites not given), DAR 3.0-5.0 per antibody
B2: Humanized Antibody 12B12-12-MMAF (antibody, V domains shown)
VH: EVQLVESGGGLVQPGGSLRLSCAASGFTFSNFGMHWVRQAPGKGLEWVSYISSGSTSFYYADTVKGRFTISRDNAKNSLYLQMNSLRDEDTAVYYCARTNSLLRGFFDAWGQGTTVTVSS
VL: DIVLTQTPLSLSVTPGQPASISCRASQSVSSSSYTYLHWYLQKPGQPPQLLIKSASNLESGVPDRFSGSGSGTDFTLKISRVEAEDVGVYYCQHSWEIPLTFGQGTKLEIK
modifications: MC-MMAF on cysteines reduced with TCEP (sites not given), DAR 3.0-5.0 per antibody
B3: Humanized Antibody 12B12-15-MMAF (antibody, V domains shown)
VH: B2 VH with L11V, G16R, S49A, A75S, S78T, D88A
VL: B2 VL
modifications: MC-MMAF on cysteines reduced with TCEP (sites not given), DAR 3.0-5.0 per antibody
B4: Chimeric antibody 12B12 (antibody, V domains shown)
VH: B1 VH
VL: B1 VL
notes: Mouse variable domains on human IgG1 heavy and human kappa light constant regions; also called c12B12; TPBG chimeric antibody 12B12
B5: Humanized antibody 12B12-12 (antibody, V domains shown)
VH: B2 VH
VL: B2 VL
notes: also called h12B12-12
B6: Chimeric antibody 28D4 (antibody, V domains shown)
VH: DVQLVESGGGLVRPGGSLKLSCAASGFTFSNYVMSWARQSPEKRLEWVAEISTGGSHTYYSDTVTGRFTISRDNAKKALYLEMSSLRSEDTAIYYCIMFYYGSSYSMDYWGQGTSVTVSS
VL: DIQMTQSTSSLSASLGDRITISCRASQDIRNYLNWYQQKPDGTVKLLIYHTSRLHSGVPSRFSGSGSGTDYSLTISNLEQEDIATYFCQQGDTLPLTFGAGTRLELK
notes: Mouse variable domains on human IgG1 heavy and human kappa light constant regions; also called c28D4; TPBG chimeric antibody 28D4
B7: Humanized antibody 28D4-3 (antibody, V domains shown)
VH: EVQLVESGGGLVKPGGSLRLSCAASGFTFSNYVMSWIRQAPGKGLEWVAEISTGGSHTYYSDTVTGRFTISRDNAKKSLYLQMNSLRAEDTAVYYCIMFYYGSSYSMDYWGQGTTVTVSS
VL: DIQMTQSPSSLSASVGDRVTITCRASQDIRNYLNWYQQKPGKAPKLLIYHTSRLHSGVPSRFSGSGSGTDFTFTISSLQPEDIATYYCQQGDTLPLTFGQGTRLEIK
notes: also called h28D4-3
B8: Humanized antibody 28D4-4 (antibody, V domains shown)
VH: B7 VH with I37A, G44R
VL: B7 VL
notes: also called h28D4-4
B9: Humanized antibody 28D4-7 (antibody, V domains shown)
VH: B7 VH
VL: B7 VL with F71Y
notes: also called h28D4-7

target: T1, human TPBG protein, full-length, on the …; assay: cell-based or functional assay

Row | Binder | IC50 of cell killing, NCI-H1568 cells (CellTiter-Glo, 5 days) [nM]
1 | B1 | 0.063
2 | B2 | 0.066
3 | B3 | 0.058

target: T1, human TPBG protein, full-length, on the …; assay: cell-based or functional assay; remark: another data set of the same source

Row | Binder | IC50 of cell killing, MDA-MB-468 cells (CellTiter-Glo, 5 days) [nM] | IC50 of cell killing, NCI-H1568 cells (CellTiter-Glo, 5 days) [nM] | IC50 of cell killing, NCI-H1975 cells (CellTiter-Glo, 5 days) [nM]
4 | B2 | 0.06 | 0.05 | 0.13

target: T2, cynomolgus TPBG protein, full-length, …; assay: FACS on CHOK1-cTPBG cells

Row | EC50 [nM] | Binder
5 | 0.67 | B4
6 | 10.3 | B5

target: T1, human TPBG protein, full-length, on the …; assay: FACS on CHOK1-hTPBG cells

Row | EC50 [nM] | Binder
7 | 0.33 | B4
8 | 0.33 | B5

target: T2, cynomolgus TPBG protein, full-length, …; assay: FACS on CHOK1-cTPBG cells; remark: another data set of the same source

Row | EC50 [nM] | Binder
9 | 0.94 | B6
10 | 0.62 | B7
11 | 0.72 | B8
12 | 0.27 | B9

target: T1, human TPBG protein, full-length, on the …; assay: FACS on CHOK1-hTPBG cells; remark: another data set of the same source

Row | EC50 [nM] | Binder
13 | 0.33 | B6
14 | 0.26 | B7
15 | 0.38 | B8
16 | 0.37 | B9

target: T3, human TPBG-hFc protein; assay: ELISA, coated human TPBG-hFc
Protocol: The purified human TPBG-hFc obtained from step (1) diluting with PBS to a final concentration of 1.0 μg/mL was aliquoted into a 96-well ELISA plate at 100 μL per well, and sealed with a parafilm and incubated at 4° C. overnight. The plate was washed twice with plate washing buffer (PBS containing 0.01% (v/v) Tween 20), and blocked with blocking buffer (PBS containing 0.01% (v/v) Tween 20 and 1% (w/w) BSA) at room temperature for 2 h. The blocking buffer was discarded, and […] per well of the purified antibody TPBG was added. After incubating at 37° C. for 2 h, the plate was washed for three times with plate washing buffer (PBS containing 0.01% (v/v) Tween 20). HRP (horseradish peroxidase)-labeled secondary antibody (purchased from Sigma) was added and incubated at 37° C. for 2 h, and the plate was washed for three times using plate washing buffer (PBS containing 0.01% (v/v) Tween 20). 100 μL of TMB substrate was aliquoted into each well, incubated at room temperature for 30 min, and 100 μL of stop buffer (1.0 N HCl) per well was subsequently added. A_{450 nm} values were read using the ELISA plate reader (SpectraMax 384plus purchased from Molecular Device), and the results were shown in Table 5. […] In Table 5 the IgG control herein is a mice IgG control, the data in the Table are OD_{450 nm} values, and Blank represents the OD_{450 nm} value of PBS buffer in the plate.
The purified humanized TPBG antibody obtained from Embodiment 1 was reacted with human TPBG-hFc, for the method, see (5) Identification of lead antibody in Embodiment 1. The EC50 in Table 11 and Table 12 are calculated according to the OD450 nm value of the h12B12 variants and the h28D4 variants, respectively. […] FIGS. 7A and 7B are the binding reactions of purified humanized h12B12 variants to human TBPG-hFc protein, and FIGS. 8A and 8B are the binding reactions of the purified humanized h28D4 variants to human TBPG-hFc protein.

Row | EC50 [nM] | Binder
17 | 0.165 | B6
18 | 0.16 | B7
19 | 0.147 | B8
20 | 0.161 | B9
21 | 0.137 | B4
22 | 0.206 | B5

target: T4, human TPBG antigen immobilized on a CM5 …; assay: SPR (Biacore), human TPBG antigen immobilized on CM5 chip
Protocol: To assess the binding specificity and affinity of the humanized anti-TPBG antibody, Biacore analysis was performed using human TPBG antigen immobilized on a CM5 chip. Biacore technique utilizes the change in the refractive index of surface layer after antibody binding to the TPBG antigen immobilized on the surface layer. The binding was determined by surface plasmon resonance (SPR) through detecting the laser refracted from the surface. Non-specific and specific interactions were distinguished by analysis of signal kinetics binding rate and dissociation rate. Chimeric antibodies 12B12 and 28D4 were used as controls.

Row | Kd [nM] | koff [s⁻¹] | kon [M⁻¹ s⁻¹] | Binder
23 | 0.013 | 3.24e-05 | 2.5e+06 | B6
24 | 0.0406 | 4.57e-05 | 1.12e+06 | B7
25 | 0.0231 | 3.58e-05 | 1.55e+06 | B8
26 | 0.0256 | 9.42e-05 | 3.68e+06 | B9
27 | 0.0102 | 1.64e-05 | 1.61e+06 | B4
28 | 0.0186 | 2.29e-05 | 1.23e+06 | B5

target: T5, mouse TPBG protein, full-length, on the …; assay: FACS on CHO-k1 cells with surface-expressed mouse TPBG, fluorescent secondary antibody, mean fluorescence intensity

Row | binding result | Binder
29 | no binding (tested: 100 nM) | B4
30 | no binding (tested: 100 nM) | B5

target: T5, mouse TPBG protein, full-length, on the …; assay: as above; remark: another data set of the same source

Row | binding result | Binder
31 | no binding (tested: 100 nM) | B6
32 | no binding (tested: 100 nM) | B7
33 | no binding (tested: 100 nM) | B8
34 | no binding (tested: 100 nM) | B9
